Data on two variants can be found in IntAct's records for PubMed 19632993.

Sequences and labels used below:
B1: Chromosomal replication initiator protein DnaA (Escherichia coli (strain K12)), P03004 (parent)
chain: MSLSLWQQCLARLQDELPATEFSMWIRPLQAELSDNTLALYAPNRFVLDWVRDKYLNNINGLLTSFCGADAPQLRFEVGTKPVTQTPQAAVTSNVAAPAQVAQTQPQRAAPSTRSGWDNVPAPAEPTYRSNVNVKHTFDNFVEGKSNQLARAAARQVADNPGGAYNPLFLYGGTGLGKTHLLHAVGNGIMARKPNAKVVYMHSERFVQDMVKALQNNAIEEFKRYYRSVDALLIDDIQFFANKERSQEEFFHTFNALLEGNQQIILTSDRYPKEINGVEDRLKSRFGWGLTVAIEPPELETRVAILMKKADENDIRLPGEVAFFIAKRLRSNVRELEGALNRVIANANFTGRAITIDFVREALRDLLALQEKLVTIDNIQKTVAEYYKIKVADLLSKRRSRSVARPRQMAMALAKELTNHSLPEIGDAFGGRDHTTVLHACRKIEQLREESHDIKEDFSNLIRTLSS
partner: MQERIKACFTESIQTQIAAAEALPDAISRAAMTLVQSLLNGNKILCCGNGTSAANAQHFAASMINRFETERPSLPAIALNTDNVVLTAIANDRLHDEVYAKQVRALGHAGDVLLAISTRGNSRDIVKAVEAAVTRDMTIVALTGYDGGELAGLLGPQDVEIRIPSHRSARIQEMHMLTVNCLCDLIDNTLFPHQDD

The assay covers variants of B1. The note with it: with diaa_ecoli diaA.
Turning to F46A, the “effect of a mutation on the interaction” value is “disrupting interaction”. Take E21A: the “effect of a mutation on the interaction” value is reported as “decreasing interaction”.
